Data as given in patent publication US20210139581A1 (Alector, published 2021).
Where two headings read alike, the source gives them in different places.

Tests used:
[1] = target: T1, human CD33 on primary human monocyte-derived dendritic cells (human, UniProt P20138 18-364); assay: cell-based or functional assay
[2] = target: T2, human CD33 (human, UniProt P20138 18-259, limits assumed); assay: BLI (ForteBio), Fab 100 nM on immobilized CD33
T2 construct: Human CD33 immobilized on the BLI sensor tip or the BIAcore C1 chip; also called Siglec-3
Experimental: The affinities (KD) of the humanized antibodies for human CD33 were measured for each antibody by BioLayer Interferometry in a ForteBio assay according to standard techniques (Estep et al. (2013) MAbs 5(2): 270-8). […] The assay was carried out at room temperature.
The affinities of AB-H14 and its affinity-matured variants (Table 15) and AB-H63 and its affinity-matured variants (Table 16), for human CD33 were measured by Fortebio assay according to the method described in Example 1 above.

[3] = target: T1, human CD33 on primary human …; assay: cell-based or functional assay; remark: listed apart in the source
[4] = target: T2, human CD33; assay: SPR (BIAcore), Fab over CD33 on C1 chip
Experimental: The affinity parameters for 10 of the 88 humanized antibodies (AB-H1, AB-H3, AB-H6, AB-H11, AB-H22, AB-H24, AB-H26, AB-H63, AB-H64, and AB-H71) were measured in a separate experiment by a more sensitive technique, surface plasmon resonance (BIAcore), and compared to Chimeric Ab and Chimeric Ab #2. BIAcore measurements were performed as follows: human CD33 was immobilized on the surface of a C1 chip, and Fabs were injected for 300 s to monitor association, followed by a 900 s flow in running buffer to monitor dissociation. The Fabs were measured at 5 concentrations: a high concentration of 27 nM and 3-fold serial dilutions.

[5] = target: T1, human CD33 on primary human …; assay: cell-based or functional assay; remark: listed apart in the source

T1 sequence (P20138 18-364): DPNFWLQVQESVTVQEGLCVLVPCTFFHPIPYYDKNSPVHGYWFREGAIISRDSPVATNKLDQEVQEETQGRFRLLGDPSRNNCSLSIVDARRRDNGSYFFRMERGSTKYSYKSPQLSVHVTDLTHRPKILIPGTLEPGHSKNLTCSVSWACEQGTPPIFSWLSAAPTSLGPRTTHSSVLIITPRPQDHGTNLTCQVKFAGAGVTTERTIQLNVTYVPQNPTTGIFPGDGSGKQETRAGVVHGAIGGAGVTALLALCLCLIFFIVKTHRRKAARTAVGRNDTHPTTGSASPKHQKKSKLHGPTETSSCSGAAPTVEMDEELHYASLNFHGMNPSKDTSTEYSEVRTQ
T2 sequence (P20138 18-259 limits assumed): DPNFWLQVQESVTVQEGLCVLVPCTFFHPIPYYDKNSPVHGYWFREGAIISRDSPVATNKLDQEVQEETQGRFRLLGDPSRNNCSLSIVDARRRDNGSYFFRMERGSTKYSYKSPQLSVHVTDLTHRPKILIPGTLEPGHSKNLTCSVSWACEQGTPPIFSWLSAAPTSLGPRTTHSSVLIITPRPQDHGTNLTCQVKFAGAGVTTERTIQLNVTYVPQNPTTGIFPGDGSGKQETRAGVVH

Binder	Maximal Downregulation (% CD33 remaining) [1] [%]	Receptor downregulation (EC50) [1] [nM]	Fold affinity improvement over parental Ab (AB-H14) [2] [fold]	Kd [2] [nM]	koff [2] [s⁻¹]	kon [2] [M⁻¹ s⁻¹]	Maximal Downregulation (% CD33 remaining) [3] [%]	Receptor downregulation (EC50) [3] [nM]	Fold Change to Chimeric Ab [4] [fold]	Kd [4] [nM]	koff [4] [s⁻¹]	kon [4] [M⁻¹ s⁻¹]	Fold affinity improvement over parental Ab (AB-H63) [2] [fold]	Maximal Downregulation (% CD33 remaining) [5] [%]	Receptor downregulation (EC50) [5] [nM]
AB-14.1 (antibody, V domains shown) VH: QVQLVQSGAEVKKPGASVKVSCKASGATFTDYNFHWVRQAPGQGLEWIGFIYPSNGITGYAQDFQGRVTMTVDTSTSTVYMELSSLRSEDTAVYYCARSDVDYFDYWGQGTLVTVSS VL: DIQMTQSPSSLSASVGDRVTITCRASQSVSTSTYSYMHWYQQKPGKAPKLLIKYASNLESGVPSRFSGSGSGTDFTLTISSLQPEDFATYYCQHSWEIPLTFGQGTKLEIK	18.6	0.0927	9.73	≤ 0.299	≤ 0.0002	670000									
AB-H6 (antibody, V domains shown, Humanized variant of murine 2F5.1) VH: QVQLVQSGAEVKKPGASVKVSCKASGYTFTDYNLHWVRQAPGQGLEWMGFIYPSNGITGYAQKFQGRVTMTVDTSTSTAYMELSSLRSEDTAVYYCARSTVDYFDYWGQGTTVTVSS VL: DIQMTQSPSSLSASVGDRVTITCRASQSVSTSTYSYMHWYQQKPGKAPKLLIYYASNLESGVPSRFSGSGSGTDFTLTISSLQPEDFATYYCQHSWEIPLTFGQGTKLEIK							20.6	0.169	1.18	1.37	0.00151	1.1e+06			
AB-14.3 (antibody, V domains shown) VH: QVQLVQSGAEVKKPGASVKVSCKASGYTFTDYNYHWVRQAPGQGLEWIGFIYPSNGITGSAQKFQGRVTMTVDTSTSTVYMELSSLRSEDTAVYYCARSDVDYFDYWGQGTLVTVSS VL: DIQMTQSPSSLSASVGDRVTITCRASQDVSTSTYSYMHWYQQKPGKAPKLLIKYVSNLESGVPSRFSGSGSGTDFTLTISSLQPEDFATYYCQHSWEIPLTFGQGTKLEIK	25.4	0.043	12.3	0.236	0.0002	847000									
AB-H26 (antibody, V domains shown, Humanized variant of murine 2F5.1; also called AB-26) VH: QVQLVQSGAEVKKPGASVKVSCKASGYTFTDYNLHWVRQAPGQRLEWIGFIYPSNGITGYSQKFQGRATLTVDTSASTAYMELSSLRSEDTAVYYCARSTVDYFDYWGQGTTVTVSS VL: DIQMTQSPSSLSASVGDRVTITCRASQSVSTSTYSYMHWYQQKPGKAPKLLIKYASNLESGVPSRFSGSGSGTDFTLTISSLQPEDFATYYCQHSWEIPLTFGQGTKLEIK							21.9	0.0519	0.28	5.86	0.00234	400000			
AB-H22 (antibody, V domains shown, Humanized variant of murine 2F5.1; also called AB-22) VH: QVQLVQSGAEVKKPGASVKISCKASGYTFTDYNLHWVRQAPGQRLEWIGFIYPSNGITGYNQKFKNKATLTVDTSASTAYMELSSLRSEDTAVYYCARSTVDYFDYWGQGTTVTVSS VL: DIQMTQSPSSLSASVGDRVTITCRASQSVSTSTYSYMHWYQQKPGKAPKLLIKYASNLESGVPSRFSGSGSGTDFTLTISSLQPEDFATYYCQHSWEIPLTFGQGTKLEIK							22.6	0.0901	0.62	2.63	0.00182	690000			
AB-H71 (antibody, V domains shown, Humanized variant of murine 2F5.1; also called AB-71) VH: QVQLVQSGAELKKPGASVKVSCKASGYTFTDYNLHWVRQAPGQRLEWIGFIYPSNGITGYSQKFQGKATLTVDTSASTAYMELSSLRSEDTAVYYCARSTVDYFDYWGQGTTVTVSS VL: DIVLTQSPDSLAVSLGERATINCRASQSVSTSTYSYMHWYQQKPGQPPKLLIKYASNLESGVPDRFSGSGSGTDFTLTISSLQAEDVAVYYCQHSWEIPLTFGQGTKLEIK							25.8	0.0412	0.87	1.88	0.00351	1.87e+06			
AB-H3 (antibody, V domains shown, Humanized variant of murine 2F5.1) VH: QVQLVQSGAEVKKPGASVKISCKASGYTFTDYNLHWVRQAPGQGLEWIGFIYPSNGITGYAQKFQGRATLTVDTSTSTAYMELSSLRSEDTAVYYCARSTVDYFDYWGQGTLLTVSS VL: DIQMTQSPSSLSASVGDRVTITCRASQSVSTSTYSYMHWYQQKPGKAPKLLIYYASNLESGVPSRFSGSGSGTDFTLTISSLQPEDFATYYCQHSWEIPLTFGQGTKLEIK							21.2	0.0933	1.43	1.13	0.0014	1.23e+06			

The next lines start with the values.

Maximal Downregulation (% CD33 remaining) [1] [%]	Receptor downregulation (EC50) [1] [nM]	Fold affinity improvement over parental Ab (AB-H14) [2] [fold]	Kd [2] [nM]	koff [2] [s⁻¹]	kon [2] [M⁻¹ s⁻¹]	Maximal Downregulation (% CD33 remaining) [3] [%]	Receptor downregulation (EC50) [3] [nM]	Fold Change to Chimeric Ab [4] [fold]	Kd [4] [nM]	koff [4] [s⁻¹]	kon [4] [M⁻¹ s⁻¹]	Fold affinity improvement over parental Ab (AB-H63) [2] [fold]	Maximal Downregulation (% CD33 remaining) [5] [%]	Receptor downregulation (EC50) [5] [nM]	Binder
23.8	0.055	14.4	0.202	0.0002	991000										AB-14.2 (antibody, V domains shown) VH: QVQLVQSGAEVKKPGASVKVSCKASGATFTDYNYHWVRQAPGQGLEWIGFIYPSNGITGYAQKFQDRVTMTVDTSTSTVYMELSSLRSEDTAVYYCARSFVDYFDYWGQGTLVTVSS VL: DIQMTQSPSSLSASVGDRVTITCRASQDVSTSTYSYMHWYQQKPGKAPKLLIKYASNLESGVPSRFSGSGSGTDFTLTISSLQPEDFATYYCQHSWEIPLTFGQGTKLEIK
						22.2	0.0725	0.27	6.02	0.00228	379000				AB-H24 (antibody, V domains shown, Humanized variant of murine 2F5.1; also called AB-24) VH: QVQLVQSGAEVKKPGASVKISCKASGYTFTDYNLHWVRQAPGQRLEWIGFIYPSNGITGYSQKFQGKATLTVDTSASTAYMELSSLRSEDTAVYYCARSTVDYFDYWGQGTTVTVSS VL: DIQMTQSPSSLSASVGDRVTITCRASQSVSTSTYSYMHWYQQKPGKAPKLLIKYASNLESGVPSRFSGSGSGTDFTLTISSLQPEDFATYYCQHSWEIPLTFGQGTKLEIK
						25	0.127	1.03	1.58	0.00186	1.18e+06				AB-H1 (antibody, V domains shown, Humanized variant of murine 2F5.1) VH: QVQLVQSGAEVKKPGASVKVSCKASGYTFTDYNLHWVRQAPGQGLEWMGFIYPSNGITGYAQKFQGRVTMTRDTSTSTVYMELSSLRSEDTAVYYCARSTVDYFDYWGQGTLVTVSS VL: DIQMTQSPSSLSASVGDRVTITCRASQSVSTSTYSYMHWYQQKPGKAPKLLIYYASNLESGVPSRFSGSGSGTDFTLTISSLQPEDFATYYCQHSWEIPLTFGQGTKLEIK
			0.613									4.44	26.8	0.0629	AB-63.18 (antibody, V domains shown) VH: QVQLVQSGAEVKKPGSSVKVSCKASGYTHTDYNLHWVRQAPGQGLEWIGFIYPSNGITGYAQKFQGRVTMTVDTSTSTVYMELSSLRSEDTAVYYCARSDVDYFDYWGQGTLVTVSS VL: DIVLTQSPDSLAVSLGERATINCRASQSVSTSTYSYMHWYQQKPGQPPKLLIKYESNLESGVPDRFSGSGSGTDFTLTISSLQAEDVAVYYCQHSWEIPLTFGQGTKLEIK
													23.4	0.0293	AB-63.16 (antibody, V domains shown) VH: QVQLVQSGAEVKKPGASVKVSCKASGYTFTDYNYHWVRQAPGQGLEWIGFIYPSNGITGYAQKFQGRVTMTVDTSTSTVYMELSSLRSEDTAVYYCARSDVDYFDYWGQGTLVTVSS VL: DIVLTQSPDSLAVSLGERATINCRASQSVHTSTYSYMHWYQQKPGQPPKLLIKYASNLESGVPDRFSGSGSGTDFTLTISSLQAEDVAVYYCQHSWEIPLTFGQGTKLEIK
						23.3	0.0772	1.22	1.33	0.00162	1.22e+06				AB-H11 (antibody, V domains shown, Humanized variant of murine 2F5.1) VH: QVQLVQSGAEVKKPGASVKVSCKASGYTFTDYNLHWVRQAPGQSLEWIGFIYPSNGITGYSQKFQGKATLTVDTSASTAYMELSSLRSEDTAVYYCARSTVDYFDYWGQGTTVTVSS VL: DIQMTQSPSSLSASVGDRVTITCRASQSVSTSTYSYMHWYQQKPGKAPKLLIYYASNLESGVPSRFSGSGSGTDFTLTISSLQPEDFATYYCQHSWEIPLTFGQGTKLEIK
													27.2	0.0522	AB-63.17 (antibody, V domains shown) VH: QVQLVQSGAEVKKPGASVKVSCKASGYTFTDYNYHWVRQAPGQGLEWIGFIYPSNGITGYAQKFQGRVTMTVDTSTSTVYMELSSLRSEDTAVYYCARSDVDYFDYWGQGTLVTVSS VL: DIVLTQSPDSLAVSLGERATINCRGSQSVSTSTYSYMHWYQQKPGQPPKLLIKYESNLESGVPDRFSGSGSGTDFTLTISSLQAEDVAVYYCQHSWEIPLTFGQGTKLEIK
